Series [1] concerns the molecule itself. As to the kind of experiment: SEC peak area ratio; full-length heavy chain, light chain and Fc fragment coexpressed in Expi293F, affinity purified.
Series [2] addresses T1, Fc fragment SEQ ID NO: 595 (coexpressed with the L234A/L235A heavy chains) (Homo sapiens (Human), UniProt P01857 104-328 = IgG part).
T1 construct: Fc fragment without CH3 interface modification
The description is as above.

Series [3] deals with the molecule itself. Put plainly: SEC peak area ratio; full-length heavy chain, light chain and Fc fragment coexpressed in Expi293F, Protein A purified.
Series [4] concerns the target T2, L234F/L235E/P331S (suppress FcγR binding) Fc fragment, SEQ ID NO: 599 (human, UniProt P01857 104-328 = IgG part).
T2 construct: No homodimer-promoting modification ('-')
T2 chain: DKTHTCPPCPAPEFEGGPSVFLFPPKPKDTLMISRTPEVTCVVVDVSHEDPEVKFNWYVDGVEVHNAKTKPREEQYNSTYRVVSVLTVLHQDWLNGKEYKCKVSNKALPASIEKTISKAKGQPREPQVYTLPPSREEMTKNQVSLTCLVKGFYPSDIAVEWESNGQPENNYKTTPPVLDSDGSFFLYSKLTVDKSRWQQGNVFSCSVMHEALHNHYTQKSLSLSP
Described as above.

For series [5], the target named is T3, Fc fragment SEQ ID NO: 597 (coexpressed with the M428L/N434S heavy chains) (Homo sapiens (Human), UniProt P01857 104-328 = IgG part).
T3 construct: Fc fragment without CH3 interface modification
Put plainly: SEC peak area ratio; full-length heavy chain, light chain and Fc fragment coexpressed in Expi293F, affinity purified.

B1: Full-length heavy chain with L234A/L235A (suppress FcγR binding) and E356K/K392D/D399K/K439E (SEQ ID NO: 142), with light chain SEQ ID NO: 61 (antibody, human IgG1, kappa, L234A L235A)
heavy: QVQLQESGPGLVRPSQTLSLTCTVSGYSITSDHAWSWVRQPPGRGLEWIGYISYSGITTYNPSLKSRVTMLRDTSKNQFSLRLSSVTAADTAVYYCARSLARTTAMDYWGQGSLVTVSSASTKGPSVFPLAPSSKSTSGGTAALGCLVKDYFPEPVTVSWNSGALTSGVHTFPAVLQSSGLYSLSSVVTVPSSSLGTQTYICNVNHKPSNTKVDKRVEPKSCDKTHTCPPCPAPEAAGGPSVFLFPPKPKDTLMISRTPEVTCVVVDVSHEDPEVKFNWYVDGVEVHNAKTKPREEQYNSTYRVVSVLTVLHQDWLNGKEYKCKVSNKALPAPIEKTISKAKGQPREPQVYTLPPSRKEMTKNQVSLTCLVKGFYPSDIAVEWESNGQPENNYDTTPPVLKSDGSFFLYSKLTVDKSRWQQGNVFSCSVMHEALHNHYTQESLSLSP
light: not shown
Consider B1, for which the “Homo full-length heavy chain (%)” value in series [1] amounted to 67.9%. Further, the “Heteromultimer (%)” value in series [2] worked out at 0%.

B2: Full-length heavy chain with L234A/L235A (suppress FcγR binding) and Q347R/K360E/D399V/F405T/K409W (SEQ ID NO: 141), with light chain SEQ ID NO: 61 (antibody, human IgG1, kappa, L234A L235A)
heavy: QVQLQESGPGLVRPSQTLSLTCTVSGYSITSDHAWSWVRQPPGRGLEWIGYISYSGITTYNPSLKSRVTMLRDTSKNQFSLRLSSVTAADTAVYYCARSLARTTAMDYWGQGSLVTVSSASTKGPSVFPLAPSSKSTSGGTAALGCLVKDYFPEPVTVSWNSGALTSGVHTFPAVLQSSGLYSLSSVVTVPSSSLGTQTYICNVNHKPSNTKVDKRVEPKSCDKTHTCPPCPAPEAAGGPSVFLFPPKPKDTLMISRTPEVTCVVVDVSHEDPEVKFNWYVDGVEVHNAKTKPREEQYNSTYRVVSVLTVLHQDWLNGKEYKCKVSNKALPAPIEKTISKAKGQPREPRVYTLPPSREEMTENQVSLTCLVKGFYPSDIAVEWESNGQPENNYKTTPPVLVSDGSFTLYSWLTVDKSRWQQGNVFSCSVMHEALHNHYTQKSLSLSP
light: not shown
As for B2, in series [1], the “Homo full-length heavy chain (%)” value stood at 65.3%. In addition, in series [2], the “Heteromultimer (%)” value is 0%.

B3: Full-length heavy chain with L234A/L235A (suppress FcγR binding) and T394W/F405A (SEQ ID NO: 139), with light chain SEQ ID NO: 61 (antibody, human IgG1, kappa, L234A L235A)
heavy: QVQLQESGPGLVRPSQTLSLTCTVSGYSITSDHAWSWVRQPPGRGLEWIGYISYSGITTYNPSLKSRVTMLRDTSKNQFSLRLSSVTAADTAVYYCARSLARTTAMDYWGQGSLVTVSSASTKGPSVFPLAPSSKSTSGGTAALGCLVKDYFPEPVTVSWNSGALTSGVHTFPAVLQSSGLYSLSSVVTVPSSSLGTQTYICNVNHKPSNTKVDKRVEPKSCDKTHTCPPCPAPEAAGGPSVFLFPPKPKDTLMISRTPEVTCVVVDVSHEDPEVKFNWYVDGVEVHNAKTKPREEQYNSTYRVVSVLTVLHQDWLNGKEYKCKVSNKALPAPIEKTISKAKGQPREPQVYTLPPSREEMTKNQVSLTCLVKGFYPSDIAVEWESNGQPENNYKTWPPVLDSDGSFALYSKLTVDKSRWQQGNVFSCSVMHEALHNHYTQKSLSLSP
light: not shown
Regarding B3, the “Homo full-length heavy chain (%)” value in series [1] turned out to be 66.9%. Moreover, in series [2], the “Heteromultimer (%)” value was determined as 0%.

B4: Full-length heavy chain SEQ ID NO: 160 (L234F/L235E/P331S; E356K/K392D/D399K/K439E) with light chain SEQ ID NO: 61 (antibody, human IgG1, kappa)
heavy: QVQLQESGPGLVRPSQTLSLTCTVSGYSITSDHAWSWVRQPPGRGLEWIGYISYSGITTYNPSLKSRVTMLRDTSKNQFSLRLSSVTAADTAVYYCARSLARTTAMDYWGQGSLVTVSSASTKGPSVFPLAPSSKSTSGGTAALGCLVKDYFPEPVTVSWNSGALTSGVHTFPAVLQSSGLYSLSSVVTVPSSSLGTQTYICNVNHKPSNTKVDKRVEPKSCDKTHTCPPCPAPEFEGGPSVFLFPPKPKDTLMISRTPEVTCVVVDVSHEDPEVKFNWYVDGVEVHNAKTKPREEQYNSTYRVVSVLTVLHQDWLNGKEYKCKVSNKALPASIEKTISKAKGQPREPQVYTLPPSRKEMTKNQVSLTCLVKGFYPSDIAVEWESNGQPENNYDTTPPVLKSDGSFFLYSKLTVDKSRWQQGNVFSCSVMHEALHNHYTQESLSLSP
light: not shown
notes: also called Sample No. 340 full-length heavy chain; copies: 2 + 2
Turning to B4, in series [3], the “Homo full-length heavy chain (%)” value was determined as 61.6%. Moreover, in series [4], the “Heteromultimer (%)” value was 0%.

B5: Full-length heavy chain SEQ ID NO: 159 (L234F/L235E/P331S; Q347R/K360E/D399V/F405T/K409W) with light chain SEQ ID NO: 61 (antibody, human IgG1, kappa)
heavy: QVQLQESGPGLVRPSQTLSLTCTVSGYSITSDHAWSWVRQPPGRGLEWIGYISYSGITTYNPSLKSRVTMLRDTSKNQFSLRLSSVTAADTAVYYCARSLARTTAMDYWGQGSLVTVSSASTKGPSVFPLAPSSKSTSGGTAALGCLVKDYFPEPVTVSWNSGALTSGVHTFPAVLQSSGLYSLSSVVTVPSSSLGTQTYICNVNHKPSNTKVDKRVEPKSCDKTHTCPPCPAPEFEGGPSVFLFPPKPKDTLMISRTPEVTCVVVDVSHEDPEVKFNWYVDGVEVHNAKTKPREEQYNSTYRVVSVLTVLHQDWLNGKEYKCKVSNKALPASIEKTISKAKGQPREPRVYTLPPSREEMTENQVSLTCLVKGFYPSDIAVEWESNGQPENNYKTTPPVLVSDGSFTLYSWLTVDKSRWQQGNVFSCSVMHEALHNHYTQKSLSLSP
light: not shown
With B5, the “Homo full-length heavy chain (%)” value in series [3] was 64.6%. Moreover, the “Heteromultimer (%)” value in series [4] was found to be 0%.

B6: Full-length heavy chain SEQ ID NO: 158 (L234F/L235E/P331S; T394W/F405A) with light chain SEQ ID NO: 61 (antibody, human IgG1, kappa)
heavy: QVQLQESGPGLVRPSQTLSLTCTVSGYSITSDHAWSWVRQPPGRGLEWIGYISYSGITTYNPSLKSRVTMLRDTSKNQFSLRLSSVTAADTAVYYCARSLARTTAMDYWGQGSLVTVSSASTKGPSVFPLAPSSKSTSGGTAALGCLVKDYFPEPVTVSWNSGALTSGVHTFPAVLQSSGLYSLSSVVTVPSSSLGTQTYICNVNHKPSNTKVDKRVEPKSCDKTHTCPPCPAPEFEGGPSVFLFPPKPKDTLMISRTPEVTCVVVDVSHEDPEVKFNWYVDGVEVHNAKTKPREEQYNSTYRVVSVLTVLHQDWLNGKEYKCKVSNKALPASIEKTISKAKGQPREPQVYTLPPSREEMTKNQVSLTCLVKGFYPSDIAVEWESNGQPENNYKTWPPVLDSDGSFALYSKLTVDKSRWQQGNVFSCSVMHEALHNHYTQKSLSLSP
light: not shown
notes: copies: 2 + 2
In the case of B6, the “Homo full-length heavy chain (%)” value in series [3] was 61.9%. Further, in series [4], the “Heteromultimer (%)” value was 0%.

B7: Full-length heavy chain with L234A/L235A (suppress FcγR binding) and T366W/L368A/Y407V (SEQ ID NO: 140), with light chain SEQ ID NO: 61 (antibody, human IgG1, kappa, L234A L235A)
heavy: QVQLQESGPGLVRPSQTLSLTCTVSGYSITSDHAWSWVRQPPGRGLEWIGYISYSGITTYNPSLKSRVTMLRDTSKNQFSLRLSSVTAADTAVYYCARSLARTTAMDYWGQGSLVTVSSASTKGPSVFPLAPSSKSTSGGTAALGCLVKDYFPEPVTVSWNSGALTSGVHTFPAVLQSSGLYSLSSVVTVPSSSLGTQTYICNVNHKPSNTKVDKRVEPKSCDKTHTCPPCPAPEAAGGPSVFLFPPKPKDTLMISRTPEVTCVVVDVSHEDPEVKFNWYVDGVEVHNAKTKPREEQYNSTYRVVSVLTVLHQDWLNGKEYKCKVSNKALPAPIEKTISKAKGQPREPQVYTLPPSREEMTKNQVSLWCAVKGFYPSDIAVEWESNGQPENNYKTTPPVLDSDGSFFLVSKLTVDKSRWQQGNVFSCSVMHEALHNHYTQKSLSLSP
light: not shown
notes: also called Sample No. 320 full-length heavy chain
B7: the “Homo full-length heavy chain (%)” value in series [1] came to 67.5%. Besides, the “Heteromultimer (%)” value in series [2] amounted to 0%.

B8: Full-length heavy chain with M428L/N434S (enhance FcRn binding) and Q347R/K360E/D399V/F405T/K409W (SEQ ID NO: 151), with light chain SEQ ID NO: 61 (antibody, human IgG1, kappa)
heavy: QVQLQESGPGLVRPSQTLSLTCTVSGYSITSDHAWSWVRQPPGRGLEWIGYISYSGITTYNPSLKSRVTMLRDTSKNQFSLRLSSVTAADTAVYYCARSLARTTAMDYWGQGSLVTVSSASTKGPSVFPLAPSSKSTSGGTAALGCLVKDYFPEPVTVSWNSGALTSGVHTFPAVLQSSGLYSLSSVVTVPSSSLGTQTYICNVNHKPSNTKVDKRVEPKSCDKTHTCPPCPAPELLGGPSVFLFPPKPKDTLMISRTPEVTCVVVDVSHEDPEVKFNWYVDGVEVHNAKTKPREEQYNSTYRVVSVLTVLHQDWLNGKEYKCKVSNKALPAPIEKTISKAKGQPREPRVYTLPPSREEMTENQVSLTCLVKGFYPSDIAVEWESNGQPENNYKTTPPVLVSDGSFTLYSWLTVDKSRWQQGNVFSCSVLHEALHSHYTQKSLSLSP
light: not shown
Consider B8, for which the “Homo full-length heavy chain (%)” value in series [1] came to 66.9%. The “Heteromultimer (%)” value in series [5] came out at 0%.

B9: Full-length heavy chain with M428L/N434S (enhance FcRn binding) and T366W/L368A/Y407V (SEQ ID NO: 150), with light chain SEQ ID NO: 61 (antibody, human IgG1, kappa)
heavy: QVQLQESGPGLVRPSQTLSLTCTVSGYSITSDHAWSWVRQPPGRGLEWIGYISYSGITTYNPSLKSRVTMLRDTSKNQFSLRLSSVTAADTAVYYCARSLARTTAMDYWGQGSLVTVSSASTKGPSVFPLAPSSKSTSGGTAALGCLVKDYFPEPVTVSWNSGALTSGVHTFPAVLQSSGLYSLSSVVTVPSSSLGTQTYICNVNHKPSNTKVDKRVEPKSCDKTHTCPPCPAPELLGGPSVFLFPPKPKDTLMISRTPEVTCVVVDVSHEDPEVKFNWYVDGVEVHNAKTKPREEQYNSTYRVVSVLTVLHQDWLNGKEYKCKVSNKALPAPIEKTISKAKGQPREPQVYTLPPSREEMTKNQVSLWCAVKGFYPSDIAVEWESNGQPENNYKTTPPVLDSDGSFFLVSKLTVDKSRWQQGNVFSCSVLHEALHSHYTQKSLSLSP
light: not shown
notes: also called Sample No. 330 full-length heavy chain
For the molecule B9, the “Homo full-length heavy chain (%)” value in series [1] came out at 54.8%. Also, the “Heteromultimer (%)” value in series [5] was found to be 0%.

B10: Full-length heavy chain with M428L/N434S (enhance FcRn binding) and T394W/F405A (SEQ ID NO: 149), with light chain SEQ ID NO: 61 (antibody, human IgG1, kappa)
heavy: QVQLQESGPGLVRPSQTLSLTCTVSGYSITSDHAWSWVRQPPGRGLEWIGYISYSGITTYNPSLKSRVTMLRDTSKNQFSLRLSSVTAADTAVYYCARSLARTTAMDYWGQGSLVTVSSASTKGPSVFPLAPSSKSTSGGTAALGCLVKDYFPEPVTVSWNSGALTSGVHTFPAVLQSSGLYSLSSVVTVPSSSLGTQTYICNVNHKPSNTKVDKRVEPKSCDKTHTCPPCPAPELLGGPSVFLFPPKPKDTLMISRTPEVTCVVVDVSHEDPEVKFNWYVDGVEVHNAKTKPREEQYNSTYRVVSVLTVLHQDWLNGKEYKCKVSNKALPAPIEKTISKAKGQPREPQVYTLPPSREEMTKNQVSLTCLVKGFYPSDIAVEWESNGQPENNYKTWPPVLDSDGSFALYSKLTVDKSRWQQGNVFSCSVLHEALHSHYTQKSLSLSP
light: not shown
As to B10, in series [1], the “Homo full-length heavy chain (%)” value amounted to 61%. Further, the “Heteromultimer (%)” value in series [5] turned out to be 0%.
